Source: patent US20220396632A1 (VERSEAU THERAPEUTICS, published 2022)
Non-standard residues stand in square brackets, D forms with d. No end group written: not given here. *: point of attachment. Biotin = O=C1N[C@H]2[C@H](CS[C@H]2CCCCC(=O)*)N1; sY = N[C@@H](Cc1ccc(OS(=O)(=O)O)cc1)C(=O)O

T1: Scrambled Y42,52,63(SO3) PSGL-1(42-62) biotin peptide (sulfotyrosine at peptide positions 1, 11 and 22; C-terminal Lys-biotin)
T1 peptide: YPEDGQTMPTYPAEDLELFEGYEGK

T2: Biotin Y46,48,51(SO3) PSGL-1(42-62) peptide (human, sulfotyrosine at Y46, Y48 and Y51; C-terminal Lys-biotin)
T2 construct: also called fully sulfated N-terminal PSGL-1 peptide
T2 peptide: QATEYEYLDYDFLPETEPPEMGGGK

T3: SulfoCCK biotin peptide (human)
T3 construct: also called sulfotyrosine CCK peptide
T3 peptide: SHRISDRD[sY]MGWMDFGGK(Biotin)

T4: Sulfotyrosine CCR2b biotin peptide (human)
T4 construct: also called CCR2b peptide
T4 peptide: TTFFD[sY]D[sY]GAPSHGGK(Biotin)

T5: Human fibrinogen protein (ThermoFisher, RP-43142) (human, UniProt P02671 20-629; P02675 31-491; P02679 27-453, limits assumed, natural sulfotyrosines)
T5 construct: mature; Native dimer with 3 pairs of non-identical chains; also called gamma-fibrinogen; γ fibrinogen protein
T5 sequence (looked up) 1: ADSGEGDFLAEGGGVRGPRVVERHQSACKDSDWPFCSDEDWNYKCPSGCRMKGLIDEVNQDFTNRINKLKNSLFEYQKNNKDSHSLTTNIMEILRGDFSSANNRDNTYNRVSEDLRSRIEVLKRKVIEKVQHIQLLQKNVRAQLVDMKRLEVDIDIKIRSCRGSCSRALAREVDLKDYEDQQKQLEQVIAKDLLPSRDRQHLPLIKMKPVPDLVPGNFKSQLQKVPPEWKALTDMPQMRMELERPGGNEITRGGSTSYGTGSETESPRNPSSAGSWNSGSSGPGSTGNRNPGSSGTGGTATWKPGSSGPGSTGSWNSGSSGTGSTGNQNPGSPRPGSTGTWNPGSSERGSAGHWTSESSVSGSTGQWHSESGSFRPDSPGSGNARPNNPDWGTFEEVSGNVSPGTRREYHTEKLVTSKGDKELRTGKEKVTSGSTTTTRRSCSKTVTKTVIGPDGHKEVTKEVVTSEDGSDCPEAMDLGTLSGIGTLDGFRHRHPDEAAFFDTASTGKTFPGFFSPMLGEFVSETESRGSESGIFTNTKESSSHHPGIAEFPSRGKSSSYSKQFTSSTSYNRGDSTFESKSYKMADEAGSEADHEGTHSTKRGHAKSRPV
T5 sequence (looked up) 2: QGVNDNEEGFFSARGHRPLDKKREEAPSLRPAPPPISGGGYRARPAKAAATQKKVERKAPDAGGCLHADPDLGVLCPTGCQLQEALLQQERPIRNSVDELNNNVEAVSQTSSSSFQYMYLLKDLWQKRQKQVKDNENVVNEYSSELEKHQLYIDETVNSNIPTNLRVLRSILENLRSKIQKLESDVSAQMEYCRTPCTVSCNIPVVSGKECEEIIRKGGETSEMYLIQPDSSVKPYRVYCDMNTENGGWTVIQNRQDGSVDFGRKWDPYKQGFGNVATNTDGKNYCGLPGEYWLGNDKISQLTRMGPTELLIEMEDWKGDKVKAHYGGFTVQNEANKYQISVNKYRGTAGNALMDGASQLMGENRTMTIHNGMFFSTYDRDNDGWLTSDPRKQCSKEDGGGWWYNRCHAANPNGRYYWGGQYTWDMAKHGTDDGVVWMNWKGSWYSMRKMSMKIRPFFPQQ
T5 sequence (looked up) 3: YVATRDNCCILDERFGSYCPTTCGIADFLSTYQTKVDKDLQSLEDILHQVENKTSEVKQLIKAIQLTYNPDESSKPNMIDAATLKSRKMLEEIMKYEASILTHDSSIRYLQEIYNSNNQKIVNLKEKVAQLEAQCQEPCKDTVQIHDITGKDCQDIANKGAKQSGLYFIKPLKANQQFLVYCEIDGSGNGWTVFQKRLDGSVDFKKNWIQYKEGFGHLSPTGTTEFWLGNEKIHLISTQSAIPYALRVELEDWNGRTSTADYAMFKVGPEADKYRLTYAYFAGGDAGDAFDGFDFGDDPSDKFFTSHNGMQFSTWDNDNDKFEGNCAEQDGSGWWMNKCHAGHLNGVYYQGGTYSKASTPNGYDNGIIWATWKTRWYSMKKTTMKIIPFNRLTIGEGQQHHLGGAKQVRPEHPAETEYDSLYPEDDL

T6: SulfoTyr C4 peptide (not fully specified; Y4, Y7 and Y9 sulfated (SO3); C-terminal biotin)
T6 construct: also called C4 alpha chain peptide; human sulfotyrosinylated C4 peptide
T6 peptide: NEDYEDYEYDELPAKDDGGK

T7: Sulfotyr fibrinogen γ peptide (not fully specified; Y8 and Y12 sulfated (SO3); C-terminal biotin)
T7 construct: also called Fibrinogen gamma peptide; human sulfotyrosinylated fibrinogen peptide
T7 peptide: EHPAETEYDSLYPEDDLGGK

T8: Sulfotyrosine D6 biotin peptide (human)
T8 construct: also called D6 peptide
T8 peptide: ENSSFY[sY][sY]D[sY]LDEVAFGGK(Biotin)

T9: Recombinant human PSGL-1(ECD)-hFc1 (R&D Systems, Cat. 3345-PS) (human, UniProt Q14242 42-305)
T9 construct: Bought; Gln42-Val295 counted on AAC50061; also called PSGL-1-Fc; PSGL-1-hFc1 chimera; not shown: human IgG1 Fc, Pro100-Lys330
T9 sequence: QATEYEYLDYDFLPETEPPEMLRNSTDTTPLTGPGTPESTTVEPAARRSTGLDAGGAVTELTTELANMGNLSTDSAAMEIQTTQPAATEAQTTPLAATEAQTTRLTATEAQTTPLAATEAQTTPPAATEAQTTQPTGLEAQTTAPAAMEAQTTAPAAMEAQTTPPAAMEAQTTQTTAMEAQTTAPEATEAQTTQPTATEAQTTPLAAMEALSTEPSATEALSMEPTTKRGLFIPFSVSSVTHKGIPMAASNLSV

T10: Biotin PSGL-1(42-62) peptide, unmodified (human, C-terminal Lys-biotin)
T10 construct: Residues 42-62 followed by GGGK-biotin; also called WT; wild-type
T10 peptide: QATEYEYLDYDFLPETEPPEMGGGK


Key:
[1] = molecular target: T1, Scrambled Y42,52,63(SO3) PSGL-1(42-62) …; assay: ELISA, immobilized biotin peptide
Method: (§1) A typical ELISA was performed by coating high binding half-well plates (Corning Cat. #3690) with 3 ug/mL/25 ul per well of biotinylated N-terminal PSGL-1 peptides, which incorporated residues 42 to 62 of the protein, in PBS, pH 7.4, overnight at 4° C. The peptide was unmodified or contained sulfated tyrosine at all 3 tyrosine positions (46, 48, and 51) or at one position (tyr51) (Table 7).
(§2) PSGL-1 protein or peptide served as a positive control. […] […] […] For each antibody, duplicate values were averaged and average assay background was subtracted.

[2] = molecular target: T2, Biotin Y46,48,51(SO3) PSGL-1(42-62) …; assay: ELISA, immobilized biotin peptide
Method: as §1, §2

[3] = molecular target: T3, SulfoCCK biotin peptide; assay: ELISA, 50 nM mAb
Method: (§3) Recombinant PSGL-1-hFc1 chimera protein consisting of PSGL-1's extracellular domain (ECD) served as a positive control. […] Primary antibody was added (25 ul per well) in duplicate at 50 nM in assay buffer (blocking buffer containing 0.05% Tween®20) into test and control (just blocked) wells and the plate incubated for 45 min at 37° C.

[4] = molecular target: T4, Sulfotyrosine CCR2b biotin peptide; assay: ELISA, 50 nM mAb
Method: as §3

[5] = molecular target: T5, Human fibrinogen protein (ThermoFisher, …); assay: ELISA, 50 nM mAb
Method: as §3

[6] = molecular target: T6, SulfoTyr C4 peptide; assay: ELISA, 50 nM mAb
Method: as §3

[7] = molecular target: T7, Sulfotyr fibrinogen γ peptide; assay: ELISA, 50 nM mAb
Method: as §3

[8] = molecular target: T11, Human complement C4 protein (Millipore Sigma, Cat. 204886) (human, UniProt P0C0L4 20-675; P0C0L4 680-1446; P0C0L4 1454-1744, limits assumed, natural sulfotyrosines); assay: ELISA, 50 nM mAb
T11 construct: mature
T11 sequence (P0C0L4 20-675 limits assumed, form in doubt, chain 1 of 3): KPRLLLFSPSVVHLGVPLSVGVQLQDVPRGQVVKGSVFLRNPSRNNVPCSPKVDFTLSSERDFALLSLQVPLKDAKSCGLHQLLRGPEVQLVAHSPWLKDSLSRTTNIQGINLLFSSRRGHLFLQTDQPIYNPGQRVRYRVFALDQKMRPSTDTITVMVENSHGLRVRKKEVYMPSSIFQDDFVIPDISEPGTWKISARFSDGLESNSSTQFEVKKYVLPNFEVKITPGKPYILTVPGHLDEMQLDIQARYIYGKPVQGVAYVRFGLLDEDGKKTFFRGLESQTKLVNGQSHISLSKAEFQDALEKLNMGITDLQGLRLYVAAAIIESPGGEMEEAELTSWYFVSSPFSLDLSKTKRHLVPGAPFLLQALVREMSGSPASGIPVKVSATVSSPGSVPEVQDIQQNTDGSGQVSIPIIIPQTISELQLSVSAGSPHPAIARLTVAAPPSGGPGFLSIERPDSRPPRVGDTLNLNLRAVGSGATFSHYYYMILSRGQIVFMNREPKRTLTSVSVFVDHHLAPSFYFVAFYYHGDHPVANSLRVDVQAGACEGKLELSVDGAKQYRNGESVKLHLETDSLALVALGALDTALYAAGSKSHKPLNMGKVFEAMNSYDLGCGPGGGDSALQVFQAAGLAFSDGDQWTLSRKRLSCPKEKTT
T11 sequence (P0C0L4 680-1446 limits assumed, form in doubt, chain 2 of 3): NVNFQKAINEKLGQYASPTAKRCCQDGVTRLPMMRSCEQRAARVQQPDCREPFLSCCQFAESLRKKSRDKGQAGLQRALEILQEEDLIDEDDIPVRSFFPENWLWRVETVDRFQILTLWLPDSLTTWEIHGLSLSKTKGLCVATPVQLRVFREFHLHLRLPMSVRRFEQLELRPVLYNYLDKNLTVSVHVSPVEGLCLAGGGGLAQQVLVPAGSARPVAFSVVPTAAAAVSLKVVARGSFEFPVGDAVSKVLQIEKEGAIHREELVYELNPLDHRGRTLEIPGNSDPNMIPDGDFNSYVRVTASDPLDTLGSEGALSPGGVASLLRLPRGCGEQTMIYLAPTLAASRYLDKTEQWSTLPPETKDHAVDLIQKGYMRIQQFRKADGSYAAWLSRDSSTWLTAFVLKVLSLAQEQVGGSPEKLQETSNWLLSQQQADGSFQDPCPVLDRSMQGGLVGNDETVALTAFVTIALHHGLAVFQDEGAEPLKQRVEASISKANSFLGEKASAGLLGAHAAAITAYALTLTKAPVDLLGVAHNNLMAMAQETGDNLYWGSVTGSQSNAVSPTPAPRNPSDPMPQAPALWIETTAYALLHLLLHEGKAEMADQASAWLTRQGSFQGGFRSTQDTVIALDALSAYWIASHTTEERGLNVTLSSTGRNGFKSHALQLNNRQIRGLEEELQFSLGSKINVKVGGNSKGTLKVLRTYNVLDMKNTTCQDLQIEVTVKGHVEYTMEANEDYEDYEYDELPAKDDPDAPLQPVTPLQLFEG
T11 sequence (P0C0L4 1454-1744 limits assumed, form in doubt, chain 3 of 3): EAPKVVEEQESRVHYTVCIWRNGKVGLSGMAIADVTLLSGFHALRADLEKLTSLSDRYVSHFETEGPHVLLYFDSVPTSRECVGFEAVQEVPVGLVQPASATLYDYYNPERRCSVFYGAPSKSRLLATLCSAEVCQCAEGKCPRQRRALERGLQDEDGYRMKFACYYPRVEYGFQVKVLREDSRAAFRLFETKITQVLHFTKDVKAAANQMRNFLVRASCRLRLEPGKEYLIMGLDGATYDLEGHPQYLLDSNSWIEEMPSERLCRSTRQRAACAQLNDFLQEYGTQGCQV
Method: as §3

[9] = molecular target: T8, Sulfotyrosine D6 biotin peptide; assay: ELISA, 50 nM mAb
Method: as §3

[10] = molecular target: T9, Recombinant human PSGL-1(ECD)-hFc1 (R&D …); assay: ELISA, 50 nM mAb
Method: as §3

[11] = molecular target: T10, Biotin PSGL-1(42-62) peptide, unmodified; assay: ELISA, immobilized biotin peptide
Method: as §1, §2

Binder	binding result [1]	A450nm, 20 nM mAb [2]	binding normalized to PSGL-1 [3]	binding normalized to PSGL-1 [4]	binding normalized to PSGL-1 [5]	binding normalized to PSGL-1 [6]	binding normalized to PSGL-1 [7]	binding normalized to PSGL-1 [8]	binding normalized to PSGL-1 [9]	A450nm [10]	A450nm, 20 nM mAb [1]	EC50 [11]	EC50 [2]	binding result [4]	binding result [5]	A450nm, 20 nM mAb [11]
08C07 (antibody, IgG4, V domains shown) VH: QMQLVQSGAEVKKPGSSVKVSCKASGGTFSNYGMIWVRQAPRQGLEWMGRIIPFLDKPDYSEKFQDRITFTADKSTSTVYMELRGLRSDDTAVYYCAKWTSTLQGITTGQTWGQGTLVTVSS VL: QPVLTQPPSASGTPGQRVTISCSGSSSNIGGSYMYWYQQFPGTAPKLLIYRNNQRPSGVPDRFSGSKSGTSASLAISGLRSEDEADYYCAAWDVSLSGWVFGGGTKLTVL	no binding (tested: 20 nM)	2.6 A450nm	0.66	0.79	0.03	0.89	0.49	0.6	1.2	1.78 A450nm						
03B04 (antibody, IgG4, V domains shown) VH: EVKLLESGGGLVKPGGSLRLSCAASGFAFSRYTMNWVRQAPGKGLEWVSSISSSSSYIYYADSVKGRFTISRDNAKNSLVLQMNSLRPEDTAVYYCARGGIAANDYWGQGTLVTVSS VL: EIVMTQTPLSLPVTLGQPASISCRSSRNLVHYDGNTYLSWFHQRPGQPPRRLIYKISNRESGVPDRFSGSGSGTDFTLKISRVEAEDVGVYYCLQHTHWPWTFGPGTKVEIK	no binding (tested: 20 nM)	2.5 A450nm	0.13	0.01	-0.07	0.41	0.57	0.56	0.42	1.7 A450nm	0.01 A450nm	5.1 nM	1.7 nM	no binding (tested: 50 nM)	no binding (tested: 50 nM)	
02E06 (antibody, IgG4, V domains shown) VH: QVQLVQSGAEVKKPGASVKVSCKASGYSFTDYYMHWVRQAPGQGLEWMGWMNPNSGNTGYAQTFQGRVTMTRNTSISTAYMELSSLRSEDTAVYYCARGRRVRGTPTFEYWGQGTLVTVSS VL: QSVVTQPPSASGTPGQRVTISCSGRSSNIGSYTVNWFQHLPGTGPKLLIYGNNQRPSGVPGRFSGSKSGTSASLAISGLQSNDEATYYCAAWDDSLNGHYVFGTGTKVTVL		2.6 A450nm	1.21	1.19	0.2	1.28	1.34	1.24		1.8 A450nm	0.12 A450nm	> 500 nM	0.17 nM			
02E01 (antibody, IgG4, V domains shown) VH: EVQLVQSGGGVVQPGRSLRLSCAASGFTFSRYGMHWVRQAPGKGLEWVSVISYDGNNKYYADSVKGRFTISRDNSKNTVYLQMNSLRADDTAVYYCARNVPVTNFGYWGQGTLVTVSS VL: QSALTQPASVSGSPGQSITISCTGTSSDVGGYNYVSWYQQHPGKAPKLMIYDVSKRPSGVSNRFSGSKSGNTASLTISGLQAEDEADYYCSSYTRPGRVFGGGTKLTVL	no binding (tested: 20 nM)	2.5 A450nm	0.5	0.56	-0.18	0.94	1.13	0.87	1.48		0.03 A450nm				no binding (tested: 50 nM)	2.07 A450nm
07G01 (antibody, V domains shown) VH: EVKLLESGGGLVRPGGSLRLSCAASGFTLSNYAMSWVRQAPGKGLEWVSAISGVGITTYYADSVKGRFIISRDNSKNTVYLQMNSLRAEDTAVYYCAKSRGGGAFDYWGQGTLVTVSS VL: not shown	no binding (tested: 20 nM)	2.58 A450nm	1.66	1.63	0.13	1.41	1.44	1.38		1.69 A450nm		> 500 nM	3.7 nM			
